First the molecules themselves.
T1: mCXCL3 displayed on the surface of yeast as N-terminal fusion of Aga2p (mouse, UniProt Q6W5C0 32-100)
T1 chain: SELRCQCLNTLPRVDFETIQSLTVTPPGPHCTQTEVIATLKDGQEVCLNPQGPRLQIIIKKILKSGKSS

T2: mCXCL5 displayed on the surface of yeast as N-terminal fusion of Aga2p (mouse)
T2 chain: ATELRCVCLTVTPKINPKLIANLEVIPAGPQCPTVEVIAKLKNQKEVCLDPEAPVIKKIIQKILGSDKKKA

B1: SA129, mouse serum albumin fused to the CK129 single-chain variable antibody fragment (scFv, V domains shown)
VH: EVQLVESGGGLVQPGGSLRLSCAASGFNISSYGSMHWVRQAPGKGLEWVASIYPYSSSTYYADSVKGRFTISADTSKNTAYLQMNSLRAEDTAVYYCARGYGPWYAYSYFALDYWGQGTLVTVSS
VL: DIQMTQSPSPLSASVGDRVTITCRASQYGGYVAWYQQKPGKAPKLLIYGASLLYSGVPSRFSGGRSGTDFTLTISSLQPEDFATYYCQRGHALITFGQGTKVEIE
B2: SA138, mouse serum albumin fused to the CK138 single-chain variable antibody fragment (scFv, V domains shown)
VH: EVQLVESDGGLVQPGGSLRLSCAASGFNLSYYGMHWVRQAPGKGLEWVAYIASYPGYTSYADSVKGRFTISADTSKNTAYLQMNSLRAEDTAVYYCARSGYSYSPYYSWFSAGMNYWGQGALVTVSS
VL: AIQMTRSPSSLSASVGDRVTITCRASQYHDGSAAWYQQKPGKAPKLLIYGASYLYSGVPSRFSGSRSGTDFTLTISSLQPEDFATYYCQQSSYSLITFGQGTKVEIK
B3: mCXCL2 displayed on the surface of yeast as N-terminal fusion of Aga2p (ligand)
chain: AVVASELRCQCLKTLPRVDFKNIQSLSVTPPGPHCAQTEVIATLKGGQKVCLDPEAPLVQKIIQKILNKGKAN
B4: mCXCL1 displayed on the surface of yeast as N-terminal fusion of Aga2p (ligand)
chain: APIANELRCQCLQTMAGIHLKNIQSLKVLPSGPHCTQTEVIATLKNGREACLDPEAPLVQKIVQKMLKGVPK

Among the targets are hCXCL3; hCXCL2; hCXCL5; hCXCL8; hCXCL6.
What all share (assay): FACS
(In flow cytometry, cells or beads pass a laser one at a time.)

The target in test [1] is B4.
The target of test [2] is wild-type hCXCL1 displayed on the surface of yeast as N-terminal fusion of Aga2p (human, UniProt P09341 35-107).
In test [3] the target is B3.
The target of test [4] is T1, mCXCL3 displayed on the surface of ….
For test [5], the target named is T2, mCXCL5 displayed on the surface of ….
For test [6], the target named is SA157*, separate mouse serum albumin fusions of the VL and VH domains of CK157 mixed in equimolar amounts.

By Kd is commonly meant the free concentration of one partner at which half of the binding sites on the other are occupied at equilibrium, for simple one-to-one binding. A low value points to a tighter complex.

wild-type hCXCL1 displayed on the surface of yeast as N-terminal fusion of Aga2p, sequence (P09341 35-107): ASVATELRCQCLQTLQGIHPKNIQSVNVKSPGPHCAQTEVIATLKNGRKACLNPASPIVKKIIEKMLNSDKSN

Turning to B1, the Kd in test [1] was determined as 2.9 nM; in test [2], 2.7 nM; in the test with hCXCL3, 9.2 nM; with hCXCL2, 43.6 nM.
For the molecule B2, the Kd in test [1] worked out at 29.4 nM; in [3], 16.7 nM; in test [4] it was 31.1 nM; in [5], 357 nM; in the test with hCXCL5 it was 33.7 nM; with hCXCL3, 836 nM. In addition, the Kd with hCXCL2 worked out at 1590 nM; in the test with hCXCL8, 14.7 nM; in the test with hCXCL6 it was 5000 nM.
As for B3, in [6], the Kd is 591 nM.
As for B4, in [6], the Kd was determined as 666 nM.

Source of the values: publication PMC5899157 (2018).
